Measurements: publication PMC6019379, “RecA-like domain 2 of DNA-dependent ATPase A domain, a SWI2/SNF2 protein, mediates conformational integrity and ATP hydrolysis” (Bioscience Reports, 2018)

What was measured:
Experiment in all cases: intrinsic tryptophan fluorescence titration; no ATP; Fluorescence titration (ex 295 nm, em 340 nm), one-site saturation fit; buffer, salt, pH and temperature not given in the material. Wild-type ADAAD Kd values are cited from ref 24 and not listed
Details in all cases: protein: recombinant; tags: His (Ni-NTA, pET-14b); hairpin
[1] = target: T1, ADAAD F507A/R592A (Bos taurus (bovine), UniProt Q9TTA5 221-940, F727A;R812A)
T1 sequence: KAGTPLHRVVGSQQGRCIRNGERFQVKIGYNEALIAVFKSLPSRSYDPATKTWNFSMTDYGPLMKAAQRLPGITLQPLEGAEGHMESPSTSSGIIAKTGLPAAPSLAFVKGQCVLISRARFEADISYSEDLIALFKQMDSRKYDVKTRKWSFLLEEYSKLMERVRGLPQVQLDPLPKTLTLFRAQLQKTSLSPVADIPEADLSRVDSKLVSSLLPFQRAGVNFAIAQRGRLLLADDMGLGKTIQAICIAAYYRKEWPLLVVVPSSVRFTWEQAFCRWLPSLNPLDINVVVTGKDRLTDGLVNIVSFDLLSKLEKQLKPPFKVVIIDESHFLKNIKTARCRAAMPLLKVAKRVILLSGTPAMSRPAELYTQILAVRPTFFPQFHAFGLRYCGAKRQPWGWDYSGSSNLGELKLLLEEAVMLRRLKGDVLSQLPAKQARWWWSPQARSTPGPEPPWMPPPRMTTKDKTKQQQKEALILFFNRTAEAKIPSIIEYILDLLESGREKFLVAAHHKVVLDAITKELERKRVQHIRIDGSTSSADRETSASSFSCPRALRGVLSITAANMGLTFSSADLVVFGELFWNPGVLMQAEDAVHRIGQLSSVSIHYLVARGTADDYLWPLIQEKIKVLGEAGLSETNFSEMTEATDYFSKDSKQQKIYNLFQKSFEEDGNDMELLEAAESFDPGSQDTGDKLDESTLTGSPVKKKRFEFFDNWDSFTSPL

[2] = target: T2, ADAAD F507W (Bos taurus (bovine), UniProt Q9TTA5 221-940, F727W)
T2 sequence: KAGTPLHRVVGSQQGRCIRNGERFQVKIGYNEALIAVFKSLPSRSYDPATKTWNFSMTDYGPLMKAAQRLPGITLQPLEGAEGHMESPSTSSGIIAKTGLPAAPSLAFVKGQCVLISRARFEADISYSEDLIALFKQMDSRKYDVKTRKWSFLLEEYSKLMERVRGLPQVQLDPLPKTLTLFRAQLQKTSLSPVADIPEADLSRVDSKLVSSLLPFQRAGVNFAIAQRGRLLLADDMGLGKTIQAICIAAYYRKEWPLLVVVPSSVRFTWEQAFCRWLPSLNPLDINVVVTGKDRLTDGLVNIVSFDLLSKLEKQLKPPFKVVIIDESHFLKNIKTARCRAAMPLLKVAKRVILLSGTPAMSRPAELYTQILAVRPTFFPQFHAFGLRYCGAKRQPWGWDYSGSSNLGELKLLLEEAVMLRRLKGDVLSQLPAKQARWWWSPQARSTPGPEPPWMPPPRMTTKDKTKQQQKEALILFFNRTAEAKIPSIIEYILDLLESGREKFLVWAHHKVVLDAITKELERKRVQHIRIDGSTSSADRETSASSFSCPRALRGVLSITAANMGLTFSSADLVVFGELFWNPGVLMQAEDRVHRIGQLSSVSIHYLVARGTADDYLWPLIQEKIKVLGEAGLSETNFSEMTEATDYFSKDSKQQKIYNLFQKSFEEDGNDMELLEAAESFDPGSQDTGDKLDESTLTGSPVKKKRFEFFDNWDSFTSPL

[3] = target: T3, ADAAD R595A (Bos taurus (bovine), UniProt Q9TTA5 221-940, R815A)
T3 sequence: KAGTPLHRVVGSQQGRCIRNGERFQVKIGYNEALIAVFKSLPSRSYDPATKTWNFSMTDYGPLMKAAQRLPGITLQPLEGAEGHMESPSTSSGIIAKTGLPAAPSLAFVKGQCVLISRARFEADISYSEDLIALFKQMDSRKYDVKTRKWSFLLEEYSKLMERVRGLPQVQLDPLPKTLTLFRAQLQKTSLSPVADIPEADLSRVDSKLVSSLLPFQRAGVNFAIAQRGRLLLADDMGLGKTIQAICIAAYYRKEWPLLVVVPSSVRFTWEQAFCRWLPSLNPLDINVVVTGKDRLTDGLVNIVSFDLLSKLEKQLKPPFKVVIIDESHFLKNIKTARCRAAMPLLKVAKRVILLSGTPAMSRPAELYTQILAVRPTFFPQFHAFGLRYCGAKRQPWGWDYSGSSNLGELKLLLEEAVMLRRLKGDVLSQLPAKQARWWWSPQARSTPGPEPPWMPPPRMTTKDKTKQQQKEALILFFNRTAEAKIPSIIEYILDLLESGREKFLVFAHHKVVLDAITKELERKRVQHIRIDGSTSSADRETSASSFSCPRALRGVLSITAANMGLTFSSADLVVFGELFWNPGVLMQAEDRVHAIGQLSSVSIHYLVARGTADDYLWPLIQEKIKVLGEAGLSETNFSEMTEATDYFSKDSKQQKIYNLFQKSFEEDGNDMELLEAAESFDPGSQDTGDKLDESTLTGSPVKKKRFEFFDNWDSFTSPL

Which Kd [1] does the source give for GCGCAATTGCGCTCGACGATTTTTTAGCGCAATTGCGC (structured_DNA) [slDNA (stem-loop DNA)] here?
Its Kd is 27.8 ± 3.6 nM.

And the Kd [2]?
Its Kd is 44.8 ± 9 nM.

And the Kd [3]?
Its Kd is 24 ± 0.6 nM.
